Among the data in patent US20220119464A1 are Kd values, retold here.

The Kd is a measure of binding affinity in units of concentration. Low readings indicate a tighter complex, high ones a looser complex.

The experiment concerns the target biotinylated L-form of SARS-CoV-2 HR1 (SARS-CoV-2).

As for SLDQINVTFLDLEYEMKKLEEAIKKLEESYIDLKEL (modifications not checked) [L-form of EK1], the Kd came to 0.023 µM.
